In patent US20230050846A1, “TREATMENT OF HEPATIC AND CARDIOVASCULAR DISORDERS” (LIFESEARCH, priority 2019, published 2023):

Target: T1, human F1Fo-ATPase (Homo sapiens, UniProt P06576)
T1 construct: Human F1Fo-ATPase was purified from HepG2 cells by immunocapture; endogenous in cells; host or cells: HepG2 cells; complex isolated by immunocapture with anti-ATP synthase antibody 12F4AD8AF8 (#ab109867, Abcam)
Assay: F1-ATPase activity assay (NADH-coupled, purified enzyme)
Assay type: biochemical
Settings: 1 μM
Source text: The mature human IF1 protein (SEQ ID NO: 5) was chemically synthesized by GenScript (Piscataway, N.J., USA) at >80% purity. The peptides derived from the mature human IF1 sequence (IF1-1-60, IF1-10-56, IF1-10-47) were produced by BachemAG (Bubendorf, Switzerland) with >90% purity.
Human F1Fo-ATPase was purified from HepG2 cells by immunocapture using mouse monoclonal anti-ATP synthase antibody (12F4AD8AF8, #ab109867, Abcam) according to manufacturer's instructions.
Measurement of F1-ATPase activity was assayed as previously described. Briefly, 10 μg of F1Fo-ATPase was prepared into 50 μL of activity assay buffer (10 mM HEPES, 150 mM NaCl, 5 mM KCl, 5 mM MgCl2, 0.5 mM phosphoenolpyruvate, 250 μM NADH, 100 μM ATP, 20 U lactate dehydrogenase, 120 U pyruvate kinase). The mixture was incubated at 37° C. for 30 min. Then the F1-ATPase activity was measured in a 96-well microplate by adding 5 μL of the mixture (1 μg of F1Fo-ATPase per point) per well to 200 μL of activity assay buffer at 37° C., and by adding 5 μL of buffer with or without peptide (1 μM each). The reduction in the absorbance of NADH was measured at 340 nm for 5 min with a Varioskan™ Flash Multimode Reader (Thermo Fisher Scientific). A slope was calculated for each well and the results expressed as a percentage of the control slope.

B1: IF1: mature human IF1 protein (SEQ ID NO: 5), chemically synthesized, natural inhibitor of F1-ATPase (protein, listed as Homo sapiens)
chain: GSDQSENVDRGAGSIREAGGAFGKREQAEEERYFRAQSREQLAALKKHHEEEIVHHKKEIERLQKEIERHKQKIKMLKHDD
  inhibition of F1-ATPase activity as compared to control: 96%
